Here are results for seven molecules from patent publication US20240254229A1 (Molecular Partners, published 2024).

Test [1] addresses T1, biotinylated extracellular domains of human CD123 (uniprot ID 26951), Fc format (human, UniProt P26951 19-305, biotinylated).
T1 construct: extracellular domain
T1 sequence (looked up): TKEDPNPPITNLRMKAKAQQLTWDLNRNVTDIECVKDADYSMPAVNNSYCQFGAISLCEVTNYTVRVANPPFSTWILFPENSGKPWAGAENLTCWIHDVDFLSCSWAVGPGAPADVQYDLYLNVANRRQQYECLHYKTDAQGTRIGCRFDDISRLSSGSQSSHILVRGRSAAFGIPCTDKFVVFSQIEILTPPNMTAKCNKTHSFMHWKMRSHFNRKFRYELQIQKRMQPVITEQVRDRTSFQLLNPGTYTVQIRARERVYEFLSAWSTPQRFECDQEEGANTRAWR
Put plainly: ribosome display selection, crude extract HTRF.

Test [2] concerns the target T2, extracellular domain of human CD70 (SEQ ID NO: 89), hCD70-Fc-trimer, ACRO Biosystems (human, UniProt P32970 52-193, chemically biotinylated where the biotinylated form was used).
T2 construct: also called human CD70-Fc-trimer; Bio.CD70
T2 sequence: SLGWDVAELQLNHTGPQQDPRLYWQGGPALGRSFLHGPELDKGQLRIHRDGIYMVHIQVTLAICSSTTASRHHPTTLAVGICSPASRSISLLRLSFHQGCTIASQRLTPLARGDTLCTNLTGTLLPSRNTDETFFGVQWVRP
The experiment in a line: SPR (ProteOn XPR36), target on GLC chip.

For test [3], the target named is T3, biotinylated extracellular domain of human CD33 (SEQ ID NO: 87), Fc and Avi tagged (human, UniProt P20138 18-259, biotinylated with BirA-GST (Avi tag)).
T3 construct: also called hCD33; human target hCD33
The experiment in a line: SPR (ProteOn XPR36), target on GLC chip.

Another test deals with T4, human serum albumin (human, UniProt P02768 25-609).
T4 construct: also called HSA; SA
Put plainly: SPR (ProteOn XPR36), target on GLC chip.

Test [4] concerns the target T5, biotinylated extracellular domain of human CD123 (SEQ ID NO: 88), Fc and Avi tagged (human, UniProt P26951 19-303, biotinylated with BirA-GST (Avi tag)).
T5 construct: also called hCD123
T5 sequence: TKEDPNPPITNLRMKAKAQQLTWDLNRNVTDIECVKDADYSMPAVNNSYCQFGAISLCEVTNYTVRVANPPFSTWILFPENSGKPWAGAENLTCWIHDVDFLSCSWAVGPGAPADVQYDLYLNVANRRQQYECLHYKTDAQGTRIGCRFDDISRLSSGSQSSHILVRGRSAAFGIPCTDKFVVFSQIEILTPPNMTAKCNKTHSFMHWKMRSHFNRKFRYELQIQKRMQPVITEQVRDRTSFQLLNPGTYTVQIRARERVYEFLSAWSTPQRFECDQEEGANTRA
The experiment in a line: SPR (ProteOn XPR36), target on GLC chip, DARPin as analyte.

Test [5] has as its target T6, hCD33 (recombinant, construct not stated) (human, UniProt P20138 18-259, limits assumed).
T6 construct: also called CD33 (Ligand 1)
Put plainly: switchSENSE, hCD33 and hCD123 co-immobilised 2:1; panel headed CD33, column KD1; KD2 printed N.A. As to the method: (§1) The designed ankyrin repeat proteins: DARPin® protein #20, DARPin® protein #21, DARPin® protein #22, DARPin® protein #27, DARPin® protein #40 and DARPin® protein #41 were tested in a concentration of 0.16 and 64 nM (in a buffer PE140 containing 10 mM Na2HPO4/NaH2PO4, 140 mM NaCl, 0.05% Tween20, 50 μM EDTA, 50 μM EGTA) for binding against two ligands hCD33 and hCD123, which both were immobilized simultaneously to DNA nanolevers, on the surface, at a pre-defined ratio (2:1, CD33:CD123) and 10% density (100:50) on an ADP-48-1-0 chip, where 100% density 1000 receptors/μm2 (preincubated R1-B48-CD123 and G1-A48-CD33 (100 nM) diluted in cNL-48 (dark)). Briefly the following steps were performed: [0724] Conjugation. Amine coupling of the two ligands (CD33 and CD123) to the DNA nanolever (A48, B48, respectively) and purification of the conjugates using the proFIRE® solution (Dynamic Biosensors GmbH) at 25° C. [0725] Evaluation of all the combined affinity and avidity of all different proteins to both ligands attached on the surface of an ADP chip using a DRX+ instrument (dynamic BIOSENSORS). [0726] Statistical analysis (repeatability from 2 to 5 times) including regeneration of the chip surface every concentration analyzed and long dissociation times and data were fitted using a bi-exponential global fit.

The target of test [6] is T6, hCD33 (recombinant, construct not …). The experiment in a line: switchSENSE, CD33 and CD123 on one chip; monophasic. As to the method:
as §1

Test [7] deals with T7, hCD123 (recombinant, construct not stated) (human, UniProt P26951 19-305, limits assumed).
T7 construct: also called CD123 (Ligand 2)
T7 sequence (looked up): T1 sequence (looked up)
Put plainly: switchSENSE, hCD33 and hCD123 co-immobilised 2:1; panel headed CD123, y axis kon. As to the method:
as §1

For test [8], the target named is T5, biotinylated extracellular domain of …. The experiment in a line: SPR (ProteOn XPR36), target on GLC chip.
Test [9] deals with T2, extracellular domain of human CD70 (SEQ …). The experiment in a line: SPR (ProteOn XPR36), target on GLC chip, DARPin as analyte.
Test [10] deals with T7, hCD123 (recombinant, construct not …). Put plainly: switchSENSE, CD33 and CD123 on one chip; monophasic. As to the method:
as §1

Test [11] has the same target. Put plainly: switchSENSE, hCD33 and hCD123 co-immobilised 2:1; panel headed CD123, column KD1; KD2 printed N.A. As to the method: as §1
Test [12] concerns the target T6, hCD33 (recombinant, construct not …). The experiment in a line: switchSENSE, hCD33 and hCD123 co-immobilised 2:1; panel headed CD33. As to the method:
as §1

Test [13] has as its target T3, biotinylated extracellular domain of …. Put plainly: crude extract HTRF, 12 nM biotinylated hCD33. As to the method: The extract of each lysed clone was applied as a 1:900 dilution (final concentration) in PBSTB (PBS supplemented with 0.1% Tween 20® and 0.2% (w/v) BSA, pH 7.4) together with 12 nM (final concentration) biotinylated hCD33, 1:200 (final concentration) of anti-strep-D2 HTRF antibody-FRET acceptor conjugate (Cisbio) and 1:200 (final concentration) of anti-6His-Tb antibody FRET donor conjugate (Cisbio) to a well of 384 well plate and incubated for 90 minutes at RT. The HTRF was read-out on a Tecan M1000 using a 340 nm excitation wavelength and a 665±10 nm emission filter. […] An amino acid sequence of a selected ankyrin repeat domain that specifically bind to hCD33 are provided in SEQ ID NO: 15.
Background: TR-FRET usually uses a lanthanide donor and a delayed reading to cut background.

For test [14], the target named is T8, human scCD3εγ (scCD3εγ_Avi-Bio) (human, biotin on the C-terminal Avi-tag (in vitro, BirA) where the biotinylated form was used).
T8 construct: Used for all SPR and HTRF results on human CD3; also called recombinant human CD3; human CD3
T8 chain: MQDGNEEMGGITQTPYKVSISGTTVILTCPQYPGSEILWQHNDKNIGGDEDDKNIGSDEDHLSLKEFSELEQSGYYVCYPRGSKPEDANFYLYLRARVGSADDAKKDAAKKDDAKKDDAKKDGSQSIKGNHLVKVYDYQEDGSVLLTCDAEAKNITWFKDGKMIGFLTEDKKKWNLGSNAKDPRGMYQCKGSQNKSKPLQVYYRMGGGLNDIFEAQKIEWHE
Put plainly: ribosome display selection, crude extract HTRF.

T3 sequence (P20138 18-259 R69G): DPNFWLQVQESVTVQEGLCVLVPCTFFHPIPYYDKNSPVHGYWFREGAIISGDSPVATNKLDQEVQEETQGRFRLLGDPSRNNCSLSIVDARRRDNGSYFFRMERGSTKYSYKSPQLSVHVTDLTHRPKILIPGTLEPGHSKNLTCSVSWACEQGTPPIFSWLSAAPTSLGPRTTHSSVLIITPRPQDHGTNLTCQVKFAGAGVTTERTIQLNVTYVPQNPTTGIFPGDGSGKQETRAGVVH
T6 sequence (P20138 18-259 limits assumed): as the sequence (P20138 18-259 R69G) above, with G52R counted along it
T4 sequence (P02768 25-609 limits assumed): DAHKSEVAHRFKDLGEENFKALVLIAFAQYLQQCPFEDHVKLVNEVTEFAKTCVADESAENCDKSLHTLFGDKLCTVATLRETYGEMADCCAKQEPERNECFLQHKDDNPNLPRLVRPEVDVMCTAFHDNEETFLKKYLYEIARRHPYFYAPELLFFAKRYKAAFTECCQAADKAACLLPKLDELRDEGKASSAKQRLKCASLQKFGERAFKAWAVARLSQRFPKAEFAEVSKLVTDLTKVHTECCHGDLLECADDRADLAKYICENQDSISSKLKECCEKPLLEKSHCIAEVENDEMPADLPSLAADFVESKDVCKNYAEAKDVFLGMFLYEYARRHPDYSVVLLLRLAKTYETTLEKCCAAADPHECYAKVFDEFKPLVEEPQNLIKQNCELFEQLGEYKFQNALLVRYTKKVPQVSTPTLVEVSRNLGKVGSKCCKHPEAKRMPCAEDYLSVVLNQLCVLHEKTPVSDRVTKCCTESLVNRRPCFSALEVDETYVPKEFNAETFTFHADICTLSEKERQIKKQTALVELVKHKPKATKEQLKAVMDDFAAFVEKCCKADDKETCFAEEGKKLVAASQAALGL

B1: DARPin® protein #6 (designed binder)
chain: DLGKKLLEAARAGQDDEVRILMANGADVNALDWLGHTPLHLAAYEGHLEIVEVLLKNGADVNAIDDNNGFTPLHLAAIDGHLEIVEVLLKNGADVNAQDKFGKTAFDISIDNGNEDLAEILQKAA
notes: CD123-specific domain
On to B1, for which, in test [1], the binding result is listed as “binds”.

B2: DARPin® protein #34 (designed binder)
chain: DLGKKLLEAALEGQLDEVRELLKAGADVNAKDQEGYTPLHLAAALGHLEIVEVLLKAGADVNAKDSIGRTPLHLAAYKGHLEIVEVLLKAGADVNAQDLLGETPADLAAEQGHQDIAEVLQKAA
notes: CD123-specific ankyrin repeat domain; not shown: N-terminal His-tag
The Kd is the constant that tells how readily two partners part at equilibrium. B2: the binding result (in test [2]; in test [3]; with human serum albumin) was “no binding (tested: 100 nM (highest concentration))” each time. Also, binding in test [4] was characterised by a dissociation constant (Kd) of 8.6 nM.

B3: DARPin® protein #22 (designed binder)
chain: DLGKKLLEAARAGQDDEVRELLKAGADVNAKDKDGYTPLHLAAREGHLEIVEVLLKAGADVNAKDKDGYTPLHLAAREGHLEIVEVLLKAGADVNAQDKSGKTPADLAADAGHEDIAEVLQKAAGSPTPTPTTPTPTPTTPTPTPTGSDLGDKLLLAATSGQDDEVRILLAAGADVNAKDYDGDTPLHLAADEGHLEIVEVLLKAGADVNAKDYSGSTPLHAAAAYGHLEIVEVLLKAGADVNAQDVFGYTPADLAAYVGHEDIAEVLQKAAGSPTPTPTTPTPTPTTPTPTPTGSDLGQKLLEAAWAGQDDEVRILLAAGADVNAKNSRGWTPLHTAAQTGHLEIFEVLLKAGADVNAKNDKRVTPLHLAAALGHLEIVEVLLKAGADVNARDSWGTTPADLAAKYGHGDIAEVLQKLA
notes: also called Ni2C-αCD33-αCD3
In general, koff refers to the first-order rate constant of dissociation. Consider B3, for which the dissociation constant (Kd) in test [5] was 15 nM. In test [6], the off-rate (koff) worked out at 0.01 s⁻¹. The binding result in [7] is on record as “no binding”.

B4: DARPin® protein #33 (designed binder)
chain: DLGYKLLQAAYDGQLDEVRILLKAGADVNAKDSRGQTPLHYAASIGHLEIVEVLLKAGADVNAKDDHGWTPLHLAAWSGHLEIVEVLLKAGADVNAQDQEGTTPADLAAVQGHQDIAEVLQKAA
notes: CD70-specific ankyrin repeat domain; not shown: N-terminal His-tag
Consider B4, for which the binding result (in test [8]; in test [3]; in the test with human serum albumin) was “no binding (tested: 100 nM (highest concentration))” throughout. Moreover, the Kd in [9] was 0.18 nM.

B5: DARPin® protein #21 (designed binder)
chain: DLGKKLLEAARAGQDDEVRILMANGADVNALDWLGHTPLHLAAYEGHLEIVEVLLKNGADVNAIDDNNGFTPLHLAAIDGHLEIVEVLLKNGADVNAQDKFGKTAFDISIDNGNEDLAEILQKAAGSPTPTPTTPTPTPTTPTPTPTGSDLGKKLLEAARAGQDDEVRELLKAGADVNAKDKDGYTPLHLAAREGHLEIVEVLLKAGADVNAKDKDGYTPLHLAAREGHLEIVEVLLKAGADVNAQDKSGKTPADLAADAGHEDIAEVLQKAAGSPTPTPTTPTPTPTTPTPTPTGSDLGQKLLEAAWAGQDDEVRILLAAGADVNAKNSRGWTPLHTAAQTGHLEIFEVLLKAGADVNAKNDKRVTPLHLAAALGHLEIVEVLLKAGADVNARDSWGTTPADLAAKYGHGDIAEVLQKLA
notes: also called αCD123-Ni2C-αCD3
Take B5: in test [10], the koff is 0.06 s⁻¹. In addition, the Kd in [11] stood at 2.2 nM. Also, in test [12], the binding result is recorded as “no binding”.

B6: DARPin® protein #15 (designed binder)
chain: DLGDKLLLAATSGQDDEVRILLAAGADVNAKDYDGDTPLHLAADEGHLEIVEVLLKAGADVNAKDYSGSTPLHAAAAYGHLEIVEVLLKAGADVNAQDVFGYTPADLAAYVGHEDIAEVLQKAA
notes: CD33-specific domain; screened as crude extract of a His-tagged clone (vector pMPAG06)
Consider B6, for which, in test [13], the binding result is given as “binds”.

B7: DARPin® protein #2 (designed binder)
chain: MRGSHHHHHHDLGQKLLEAAWAGQDDEVRELLKAGADVNAKNSRGWTPLHTAAQTGHLEIFEVLLKAGADVNAKDDKGVTPLHLAAALGHLEIVEVLLKAGADVNAQDSWGTTPADLAAKYGHEDIAEVLQKAA
notes: CD3-specific ankyrin repeat domain
Turning to B7, the binding result in test [14] was “binds”.
